Test results from article PMC2768864 (The Journal of Experimental Medicine, 2009).

B1: plasma kallikrein (enzyme)
heavy: GCLTQLYENAFFRGGDVASMYTPNAQYCQMRCTFHPRCLLFSFLPASSINDMEKRFGCFLKDSVTGTLPKVHRTGAVSGHSLKQCGHQISACHRDIYKGVDMRGVNFNVSKVSSVEECQKRCTSNIRCQFFSYATQTFHKAEYRNNCLLKYSPGGTPTAIKVLSNVESGFSLKPCALSEIGCHMNIFQHLAFSDVDVARVLTPDAFVCRTICTYHPNCLFFTFYTNVWKIESQRNVCLLKTSESGTPSSSTPQENTISGYSLLTCKRTLPEPCHSKIYPGVDFGGEELNVTFVKGVNVCQETCTKMIRCQFFTYSLLPEDCKEEKCKCFLRLSMDGSPTRIAYGTQGSSGYSLRLCNTGDNSVCTTKTSTR
light: not shown
B2: activated factor XII (FXIIa) (enzyme, human)
heavy: IPPWEAPKEHKYKAEEHTVVLTVTGEPCHFPFQYHRQLYHKCTHKGRPGPQPWCATTPNFDQDQRWGYCLEPKKVKDHCSKHSPCQKGGTCVNMPSGPHCLCPQHLTGNHCQKEKCFEPQLLRFFHKNEIWYRTEQAAVARCQCKGPDAHCQRLASQACRTNPCLHGGRCLEVEGHRLCHCPVGYTGAFCDVDTKASCYDGRGLSYRGLARTTLSGAPCQPWASEATYRNVTAEQARNWGLGGHAFCRNPDNDIRPWCFVLNRDRLSWEYCDLAQCQTPTQAAPPTPVSPRLHVPLMPAQPAPPKPQPTTRTPPQSQTPGALPAKREQPPSLTRNGPLSCGQRLRKSLSSMTR
light: VVGGLVALRGAHPYIAALYWGHSFCAGSLIAPCWVLTAAHCLQDRPAPEDLTVVLGQERRNHSCEPCQTLAVRSYRLHEAFSPVSYQHDLALLRLQEDADGSCALLSPYVQPVCLPSGAARPSETTLCQVAGWGHQFEGAEEYASFLQEAQVPFLSLERCSAPDVHGSSILPGMLCAGFLEGGTDACQGDSGGPLVCEDQAAERRLTLQGIISWGSGCGDRNKPGVYTDVAYYLAWIREHTVS
B3: Ixodes ricinus contact phase inhibitor (Ir-CPI) (natural protein)
chain: ANHKGRGRPAKCKLPPDDGPCRARIPSYYFDRKTKTCKEFMYGGCEGNENNFENITTCQEECRAKKV

What was measured:
Test in all cases: SPR
[1] = molecular target: B3
[2] = molecular target: B2
[3] = molecular target: activated factor XI (FXIa) (human, UniProt P03951 19-387; P03951 388-625)
plasma kallikrein = molecular target: B1
Chain of plasma kallikrein (P03952 391-638): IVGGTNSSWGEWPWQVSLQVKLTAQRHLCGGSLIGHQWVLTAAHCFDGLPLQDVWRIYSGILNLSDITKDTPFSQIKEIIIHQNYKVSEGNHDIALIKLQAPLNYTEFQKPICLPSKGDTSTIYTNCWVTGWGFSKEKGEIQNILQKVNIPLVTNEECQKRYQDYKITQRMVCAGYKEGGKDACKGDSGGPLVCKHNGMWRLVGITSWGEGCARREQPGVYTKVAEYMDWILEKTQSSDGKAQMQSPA

Chain of activated factor XI (FXIa) (P03951 19-387, chain 1 of 2): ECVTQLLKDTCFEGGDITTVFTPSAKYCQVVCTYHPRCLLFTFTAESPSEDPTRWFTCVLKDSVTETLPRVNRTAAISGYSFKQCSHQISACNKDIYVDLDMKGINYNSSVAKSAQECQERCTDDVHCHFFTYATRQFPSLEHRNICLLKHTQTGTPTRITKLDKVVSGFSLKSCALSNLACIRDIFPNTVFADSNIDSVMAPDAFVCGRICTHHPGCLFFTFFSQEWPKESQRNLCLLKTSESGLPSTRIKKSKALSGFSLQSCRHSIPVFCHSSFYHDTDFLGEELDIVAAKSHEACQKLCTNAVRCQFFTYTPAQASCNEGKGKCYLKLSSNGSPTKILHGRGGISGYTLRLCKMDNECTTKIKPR
Chain of activated factor XI (FXIa) (P03951 388-625, chain 2 of 2): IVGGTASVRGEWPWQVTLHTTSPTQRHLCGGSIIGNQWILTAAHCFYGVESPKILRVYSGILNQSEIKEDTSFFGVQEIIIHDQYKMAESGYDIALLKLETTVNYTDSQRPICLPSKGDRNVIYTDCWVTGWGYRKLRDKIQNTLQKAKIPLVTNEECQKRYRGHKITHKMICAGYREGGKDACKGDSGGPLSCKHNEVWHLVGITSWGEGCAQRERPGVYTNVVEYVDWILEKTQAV

Row | Binder | ka1 (two-state model, formation of AB) [1] | ka2 (two-state model, forward conformation change) [1] | kd1 (two-state model, dissociation of AB) [1] | kd2 (two-state model, backward conformation change) [1] | Ka [2] | Ka [3] | Ka (plasma kallikrein)
1 | B1 | 34900 M⁻¹ s⁻¹ | 0.00834 s⁻¹ | 0.0532 s⁻¹ | 0.00142 s⁻¹ | – | – | –
2 | B2 | 219000 M⁻¹ s⁻¹ | 0.655 s⁻¹ | 0.0946 s⁻¹ | 0.105 s⁻¹ | – | – | –
3 | B3 | – | – | – | – | 1.68e+08 M⁻¹ | 3.83e+08 M⁻¹ | 4.51e+06 M⁻¹
